142 substances from the supplement of paper PMC12042874 can be followed below.

± gives the uncertainty stated by the source.

This data set can be described thus: amyloid nucleation score (Sup35N fusion, yeast selection) (log enrichment); library NNK2; higher = more nucleation; inactive = no reads after selection. In a few lines:
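Nucleation score: DiMSum log enrichment of output over input reads, centred on the mode score of non-aggregating sequences. Only sequences with at least 100 input reads were kept. Reads came from Illumina sequencing of plasmid inserts before and after 7 days of growth at 30°C without adenine and uracil, in psi-negative yeast expressing Sup35N fused to peptides of 20 random codons after 24 hours of induction with 100 μM copper sulfate.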

For the substance VRLLSFEINSWWLCACCRSV, the amyloid nucleation score was determined as 7 ± 0.076.
Take FYHCFDVLSSQMYYLKLLST: the amyloid nucleation score entry was “inactive”.
To VGRVNIVSDLMVPNSHYICS belongs -0.056 ± 0.76; to YKTFFLVASAKVNEAPGQRG, “inactive”; to STTHHARRFVSHESACLGAV, 1.11 ± 0.17.
In the case of LKCPGLTREGLSPYKSSLPN it was -0.202 ± 1.
To VAKLLMAGVVKPCRGGRCVG belongs 0.936 ± 0.16.
Take FPTFFCLAIIWKYMFLLIKF: the amyloid nucleation score was -0.238 ± 1.1.
In the case of FYNRFRGFIFV it was “inactive”.
In the case of CFRFLGREECKLTFGSDEMI it was “inactive”.
Consider RLRIMYSTLLATGMV, for which the amyloid nucleation score stood at 0.178 ± 0.5.
For the substance VFSYRLLSNPLSVPW, the amyloid nucleation score worked out at 4.83 ± 0.089.
In the case of YVFIYESPYSSRSCPNALVS it was -0.011 ± 0.46; in that of HLRIGLIN, -0.467 ± 0.43; in that of YMSNPSELWKNWILVHYHFC, 3.56 ± 0.076.
On to ACSRANLAKKLRGMWRYSAF, for which the amyloid nucleation score was -0.199 ± 1.1.
Regarding SLPGLGFLRLFFQ, the amyloid nucleation score amounted to 0.089 ± 0.55.
Consider FKLGGSNVDDFFVFNWITVF, for which the amyloid nucleation score is -0.596 ± 0.76.
In the case of SIRSVILLCATLTSVGASLS it was 2.14 ± 0.14; in that of HLSGYKLLIKSVYFE, 3.63 ± 0.067; in that of IYREVYAL, “inactive”.
To GWMQIGSVYLFSE belongs 7.741 ± 0.048; to YWNDSSRYGQVGVEYC, 0.49 ± 0.8; to DLARPDFKLIYSYGSNSPGS, -1.38 ± 0.64.
Consider GFSRRGELHVSVYHIRDNVR, for which the amyloid nucleation score was -1.11 ± 1.1.
In the case of IYDCDTTMVSNNMRYILVLH it was -0.858 ± 0.33; in that of FLMISWSLWGFFLY, “inactive”.
In the case of NSGSGAAFGVSLHVVNCARS it was 0.045 ± 0.79; in that of YDVSFTFLWW, 0.242 ± 0.61; in that of HGQARWGR, 1.47 ± 0.28.
Consider NHMLL, for which the amyloid nucleation score is -0.313 ± 0.76.
As to SYIWR, the amyloid nucleation score is -0.551 ± 0.64.
LWMVFSGNALEKYSSDFCHC: the amyloid nucleation score is -1.22 ± 0.78.
In the case of IRKALNASVLKLT it was 1.1 ± 0.36; in that of ANNRGVSLDPGVHCVGVLLK, 0.551 ± 0.51.
TAVWDL yielded an amyloid nucleation score of 0.745 ± 0.42.
In the case of LTPLICADNLD it was -0.526 ± 0.35; in that of CMVNPVPWDCLVRKFMFVGA, -0.421 ± 0.35; in that of VAPTLYLVCRIIRPNPNSYY, -0.228 ± 0.53.
RRGENIDESVRVVEWGVDVM gave an amyloid nucleation score of 0.64 ± 0.47.
In the case of ASWKFMFNCSKISRRPNTIT it was 0.148 ± 1; in that of SGLEQRGMFRRKNLPIKWCL, 3.89 ± 0.041.
Turning to VYIILSFSIGMGEFNMISGG, the amyloid nucleation score is -0.587 ± 0.79.
To HGTCISSGNKWARWTLS belongs 0.355 ± 0.65; to LLITR, -0.183 ± 1; to LRNFSYIRQGGSRVSSASGY, -1.18 ± 1.1.
As to NIFMWSSTEIHCRWKVFLRL, the amyloid nucleation score was -0.949 ± 0.44.
As to FSNSHIVMVENLTDIVSVTT, the amyloid nucleation score result is “inactive”.
For the substance ALMVEDRH, the amyloid nucleation score was determined as 0.382 ± 0.8.
In the case of THQRAYCFSSVYWVNVSKSG it was -0.006 ± 0.74.
For the substance WRYITCHS, the amyloid nucleation score came out at 1.59 ± 0.55.
In the case of LANYYFYYKDDVWQVMLWCT it was -1.15 ± 0.36; in that of QGYAYMCTGSFFFSLLQVLS, 3.79 ± 0.1.
To NFAQWW belongs 0.443 ± 0.8.
In the case of VTSICNPDVIMEEKLGDNRG it was -0.416 ± 0.28; in that of SFHLS, -0.019 ± 0.6.
On to AFSFDAW, for which the amyloid nucleation score worked out at 2.02 ± 0.14.
On to SFCKCLVVALVDVWNRCLPW, for which the amyloid nucleation score is 4.68 ± 0.051.
To TFLLAFFIFFLNG belongs -0.306 ± 0.53; to QTRTQEFFRSFNKVFTQ, 2.59 ± 0.061; to RDLEPYLHIWSLIVSARV, -0.014 ± 0.65.
To HIIISKYHINYCRMMNYSGK belongs 8.137 ± 0.056; to SQRRKQLEYHAVLWY, -0.289 ± 0.76; to VCQRPEMVLNSIETLQPRWS, 0.211 ± 0.21.
In the case of PCYFINFLRFSWNIQLYNVL it was -0.668 ± 1.1.
The substance SHNGHVLVPNRVVSITSCHR yielded an amyloid nucleation score of 0.147 ± 0.76.
For LSFLKVW, the amyloid nucleation score was -0.654 ± 0.36.
For the substance LNSMTILLSN, the amyloid nucleation score is 0.54 ± 0.56.
In the case of KVAFKIALKSSTIWFIDS it was 2.47 ± 0.13; in that of SVKQGN, 0.132 ± 0.22.
To RCKAAGCIHLVFFVCRDACC belongs 0.605 ± 0.66; to AWGHIHAVPMYNALLYNSHD, 0.695 ± 0.66; to VFDGRYVESILSFF, 3.96 ± 0.1.
Take AAVSSCLLFYSC: the amyloid nucleation score was 3.5 ± 0.082.
In the case of PSWSAKTCACWNKAYPIVEI it was 0.633 ± 0.47.
To DRRLCLCLLIMSC belongs -0.578 ± 0.79; to IQTHSSSWG, -0.288 ± 1.
In the case of KRSVAVFRRCV it was 0.817 ± 0.44; in that of RRPIGDW, 0.169 ± 0.36.
The substance AGFTLYFGMTRNYQYSDCSP had an amyloid nucleation score of 4.23 ± 0.066.
In the case of LRNGVPDADASSRYFWAAEW it was 0.712 ± 0.24; in that of HLWSLRGPIAFIENRLSVWI, 0.605 ± 0.51; in that of CISTYN, -0.822 ± 0.44.
To RVSYDF belongs 0.43 ± 0.65; to NHAQMDMKTHVINRLCKE, 0.605 ± 0.57; to CIDVSLFNGHACWIVCFSPV, 5.48 ± 0.045.
To REGPCGELGELPVLKRRGKH belongs 0.986 ± 0.41; to DVRSRVHWDMSDQQFIMWWV, -0.716 ± 1.1; to IVSVFQYRTVNIFVGFYYIR, “inactive”.
In the case of SCSISGMVVWDRMVKLSLSL, the amyloid nucleation score was -0.317 ± 0.48.
In the case of VMNHWCNVWSFPWTMVRTHQ it was 0.352 ± 0.31; in that of TKDERFV, 0.218 ± 0.29.
In the case of VIEYRVFRKYPCNCFLRGLS it was -0.865 ± 0.39; in that of NCFSSRGGARTFGIKLIFSV, 0.524 ± 0.51; in that of SLVIYV, -1.42 ± 0.62.
To KVFSPHRNWWVI belongs 0.553 ± 0.57; to LCSMEIWRMRRMMQS, 0.154 ± 0.34; to QLFMNPDWNKRHYNELYSSG, “inactive”.
Regarding PATLAKIYSVGVGNYHRFVR, the amyloid nucleation score result is “inactive”.
To SLNRTTSSLVRW belongs 6.029 ± 0.037; to TYFVLYVCED, 0.311 ± 0.23; to FWVFTNIESMGLAYCDNQDL, 3.09 ± 0.064.
On to AMYINWSLFVKLSRRMRYQR, for which the amyloid nucleation score result is “inactive”.
In the case of SFVWRWRRSEFHQVMRGGWP it was 2.15 ± 0.23.
With NGTKTP, the amyloid nucleation score was found to be 0.568 ± 0.47.
To PLLTMWDLDSGVSGFCQVRS belongs -0.477 ± 0.35; to CAYGLFVNVFSVDADLRYKY, 7.544 ± 0.022.
To KWYKVVNMALALISMWSQAW belongs -0.701 ± 0.63; to THLKYTFWIFV, 2.62 ± 0.14; to SRVEVNALVLISYYPVLDTA, 5.736 ± 0.039.
VGDSMMWVTDRAKGVPYGGD had an amyloid nucleation score of 0.285 ± 0.65.
To CCVEPVVRDVEVKIRSVVMN belongs 0.123 ± 0.56; to GLLTGITILIVVDSCLGVCF, 3.99 ± 0.095; to CQRQRLNFY, -0.626 ± 1.1.
In the case of QSYRVPKLFMNAAE it was 0.197 ± 0.57; in that of DDCCSVNAMHSANCMMVVR, 0.09 ± 1.
In the case of LQASIIAMVRGRTNDSFLED it was 2.7 ± 0.21.
The substance LCWLATRVLSSNDSLYENME had an amyloid nucleation score of 3.65 ± 0.071.
In the case of WFAGFMCRVLACTFSALKLS it was -0.917 ± 0.78; in that of EFRNLT, -0.213 ± 0.18; in that of TFLTLA, 0.979 ± 0.4.
Take NDIMYSVSSYCWWSFRSSVF: the amyloid nucleation score came to 2.06 ± 0.15.
To RLNVKDYFCYIAQESKTTDR belongs 4.76 ± 0.083; to QVYCQAVNYKENRVYFMGVP, 5.2 ± 0.054.
To RYRVRKCSLANWDEWTTIGC belongs 1.67 ± 0.19; to AVGNNN, -1.11 ± 0.74; to FCLIHVVM, 1.32 ± 0.27.
In the case of ALEMSMGKCFWGLVVVIMRW, the amyloid nucleation score is -0.899 ± 0.36.
RLSVLD returned an amyloid nucleation score of 1.34 ± 0.21.
In the case of GCNIRTNVGRLCMSYPDSNR it was 0.636 ± 0.18; in that of LSSVILVLNNSVAFYILDAG, 3.83 ± 0.09.
To SKSVWMRLVS belongs -0.58 ± 0.24; to SRAIECVRIYTFNSHSWFIA, -1.38 ± 1.1; to IYWLSYQTMVPIQAVYIHRC, -0.087 ± 0.42.
To YMIFCLSIYEDDEALGPTER belongs -0.287 ± 0.21.
Regarding FKAVS, the amyloid nucleation score was -0.291 ± 1.1.
In the case of SEPKEVCLVIGGEEYKGVVS it was 0.364 ± 0.37.
To TRYHLHSALT belongs -0.12 ± 1.
In the case of EESSTKGMTG it was -0.014 ± 0.26.
On to EFMNDVIILIYLSFKRTILN, for which the amyloid nucleation score is -0.541 ± 1.1.
As for MKNTVE, the amyloid nucleation score was -0.803 ± 1.
In the case of ALGTEFSVPKFTDGVNMAAR it was -0.451 ± 0.48.
